The target of assay [1] is T1, Full length human TIM-3 on transfected cells (human, UniProt Q8TDQ0 22-301).
T1 construct: also called Human cells
The assay can be described thus: binding to cells transfected with human TIM-3.

In assay [2] the target is T2, cyno TIM-3 on transfected cells (cyno, UniProt A0A2K5U3G7 22-294).
T2 construct: whole, on cells; also called Cyno cells
T2 sequence: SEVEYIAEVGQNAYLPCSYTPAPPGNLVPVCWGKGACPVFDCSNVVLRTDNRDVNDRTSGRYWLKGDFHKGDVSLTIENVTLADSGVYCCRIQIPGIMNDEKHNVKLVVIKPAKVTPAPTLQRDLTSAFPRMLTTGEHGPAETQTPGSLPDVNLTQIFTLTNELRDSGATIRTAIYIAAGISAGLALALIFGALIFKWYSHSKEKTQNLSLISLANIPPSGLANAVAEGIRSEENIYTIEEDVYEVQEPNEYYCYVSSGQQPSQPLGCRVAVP
As to the kind of experiment: binding to cells transfected with cyno TIM-3.

In assay [3] the target is T3, recombinant human TIM-3-Fc fusion protein (huTIM-3-Fc) (human, UniProt Q8TDQ0 22-200).
T3 construct: range 22-200; Bought from R&D Systems (NS0-derived); Deglycosylated for HDX-MS; also called recombinant human Fc-TIM-3 chimera; TIM-3 IgG1 Fc Chimera; not shown: IgG1 Fc of the bought chimera
As to the kind of experiment: competition ELISA on coated Fc-TIM-3, competitor galectin-9.

The target in assay [4] is T4, Full length human PD1 (huPD1) on cells (human, UniProt Q15116 25-288).
T4 construct: on T cells of human donors in the MLR and CMV assays (functional); also called PD-1 on Jurkat cells
The assay can be described thus: flow cytometry, PHA-stimulated Jurkat cells.
Method: Jurkat cells were stimulated overnight with 20 ng/ml of PHA, harvested, washed, and checked for viability. The cells were then incubated at 6-10° C. for 45-60 minutes with various concentrations of test antibodies, washed and incubated at 6-10° C. for 45-60 minutes with FITC-labeled goat anti-human IgG. The cells were washed and fixed with BD Cytofix, refrigerated overnight and analyzed on a MACSQuant flow cytometer. The percentage of PD-1 positive cells at each antibody concentration was plotted vs log of the antibody concentration and EC₅₀ values were generated in Prism.

The target in assay [5] is T5, Extracellular domain of human PD1 (huPD1-ECD) (human, UniProt Q15116 25-169, biotinylated in the ligand inhibition assay (sites not given)).
T5 construct: Expressed with a hexahistidine tag or as Fc fusion; also called biotinylated PD-1
As to the kind of experiment: SPR ProteOn, captured mAb, huPD1-ECD analyte.

For assay [6], the target named is T6, Extracellular domain of cyno PD1 (cPD1-ECD) (Macaca fascicularis (cynomolgus)).
T6 construct: Expressed with a hexahistidine tag or as Fc fusion; also called cynoPD1-ECD; cynoPD-1-ECD
T6 chain: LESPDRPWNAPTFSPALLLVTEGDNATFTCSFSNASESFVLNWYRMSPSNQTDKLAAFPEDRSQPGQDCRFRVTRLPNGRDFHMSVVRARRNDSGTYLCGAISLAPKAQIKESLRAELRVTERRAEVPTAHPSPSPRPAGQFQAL
The assay can be described thus: SPR ProteOn, cynoPD1-ECD; RANGE high replicate.
Method: (§1) Affinity measurements using Surface Plasmon Resonance (SPR) were performed using a ProteOn XPR36 system. A biosensor surface was prepared by coupling a mixture of anti-IgG Fc modified alginate polymer layer surface of a GLC chip using the manufacturer instructions for amine-coupling chemistry. […] The collected data were processed and fitted to a Langmuir 1:1 binding model. The result for each mAb was reported in the format of kₒₙ (On-rate), koff (Off-rate) and KD (equilibrium dissociation constant).
(§2) STDEV were calculated for 3 or more replicates generated for human and cyno proteins. If less than 3 replicates were calculated, RANGE was indicated. RANGE is defined as the low and high values for the replicates tested. For samples in the Table 10 or Table 11 without value indicated in RANGE or STDEV, only one experiment was performed.

Assay [7] addresses T5, Extracellular domain of human PD1 …. The assay can be described thus: SPR ProteOn, huPD1-ECD; RANGE low replicate.
Method: as §1
(§3) STDEV were calculated for 3 or more replicates generated for human and cyno proteins. If less than 3 replicates were calculated, RANGE is indicated. RANGE is defined as the low and high values for the replicates tested. For samples without RANGE or STDEV, only one experiment was performed
The target in assay [8] is T6, Extracellular domain of cyno PD1 …. The assay can be described thus: SPR ProteOn, captured mAb, cynoPD1-ECD analyte.
Method: as §1, §2
Assay [9] has the same target. The assay can be described thus: SPR ProteOn, cynoPD1-ECD; RANGE low replicate.
Method: as §1, §2
Assay [10] has as its target T5, Extracellular domain of human PD1 …. As to the kind of experiment: SPR ProteOn, captured mAb, huPD1-ECD analyte. The source holds these as a separate data set.
Assay [11] shares this target. As to the kind of experiment: SPR ProteOn, huPD1-ECD; RANGE low replicate; RANGE low replicate.
Method: as §1, §3
The target is the same in assay [12]. The assay can be described thus: MSD ligand inhibition, competitor coated huPDL1-ECD.
Method: (§4) The ligand inhibition assay design was MSD (Mescoscale Discovery) based. A MSD plate was directly coated with ligand (cynoPDL1-ECD, huPDL1-ECD or huPDL2-ECD) and incubated overnight at 4° C. The following day, the coating solution was removed and the plate was blocked. […] Depending on the panel of antibodies to be tested, the antibodies were tested as titrations or at a fixed concentration.
Assay [13] shares this target. The assay can be described thus: MSD ligand inhibition, competitor coated huPDL2-ECD.
Method: as §4
Assay [14] shares this target. The assay can be described thus: SPR ProteOn, captured mAb; antigen species not given.
The target in assay [15] is T6, Extracellular domain of cyno PD1 …. As to the kind of experiment: SPR ProteOn, cynoPD1-ECD; RANGE high replicate.
Method: as §1, §3
In assay [16] the target is T5, Extracellular domain of human PD1 …. As to the kind of experiment: MSD ligand inhibition, competitor coated cynoPDL1-ECD.
Method: as §4
Assay [17] concerns the target T6, Extracellular domain of cyno PD1 …. The assay can be described thus: SPR ProteOn, captured mAb, cynoPD1-ECD analyte.
Method: as §1, §3
For assay [18] the target is unchanged. As to the kind of experiment: SPR ProteOn, cynoPD1-ECD; RANGE low replicate.
Method: as §1, §3
The target in assay [19] is T5, Extracellular domain of human PD1 …. The assay can be described thus: MSD ligand inhibition, competitor coated cynoPDL1-ECD. This is another data set of the same source.
Method: The ligand inhibition assay design was MSD (Mescoscale Discovery) based. A MSD plate was directly coated with ligand (cynoPDL1-ECD, huPDL1-ECD or huPDL2-ECD) and incubated overnight at 4° C. The following day, the coating solution was removed and the plate was blocked. […] Depending on the panel of antibodies to be tested, the antibodies were tested as titrations or at a fixed concentration. […] The mAbs that were positive for inhibition of ligand binding at one concentration were also tested in dose responses for inhibition of various PD-1 ligands.
Select Fabs were cloned as IgG2sigma isotype and characterized for their Jurkat cell binding and cynomolgus PD-L1 ligand inhibition at concentrations 1 μg/ml and 10 μg/ml.
For assay [20], the target named is T4, Full length human PD1 (huPD1) on cells. As to the kind of experiment: flow cytometry, PHA-stimulated Jurkat cells. This is another data set of the same source.
For assay [21], the target named is T5, Extracellular domain of human PD1 …. The assay can be described thus: SPR ProteOn, huPD1-ECD; RANGE high replicate; RANGE high replicate.
Method: as §1, §3
The target is the same in assay [22]. The assay can be described thus: SPR ProteOn, huPD1-ECD; RANGE high replicate.
Method: as §1, §3
In assay [23] the target is T4, Full length human PD1 (huPD1) on cells. The assay can be described thus: cell-based or functional assay.
In assay [24] the target is T6, Extracellular domain of cyno PD1 …. As to the kind of experiment: SPR ProteOn, cynoPD1-ECD; RANGE low replicate; RANGE low replicate.
Method: as §1, §3
Assay [25] has the same target. As to the kind of experiment: SPR ProteOn, cynoPD1-ECD; RANGE high replicate; RANGE high replicate.
Method: as §1, §3
The target in assay [26] is T5, Extracellular domain of human PD1 …. The assay can be described thus: SPR ProteOn, captured mAb, huPD1-ECD analyte; approximation (chi2 > 20%).
Method: as §1
STDEV were calculated for 3 or more replicates generated for human and cyno proteins. If less than 3 replicates were calculated, RANGE was indicated. RANGE is defined as the low and high values for the replicates tested.
In assay [27] the target is T6, Extracellular domain of cyno PD1 …. As to the kind of experiment: SPR ProteOn, cynoPD1-ECD; RANGE high replicate; RANGE high replicate.

Read-outs that look alike come from different tables or passages of the source.

T4 sequence (Q15116 25-288 limits assumed): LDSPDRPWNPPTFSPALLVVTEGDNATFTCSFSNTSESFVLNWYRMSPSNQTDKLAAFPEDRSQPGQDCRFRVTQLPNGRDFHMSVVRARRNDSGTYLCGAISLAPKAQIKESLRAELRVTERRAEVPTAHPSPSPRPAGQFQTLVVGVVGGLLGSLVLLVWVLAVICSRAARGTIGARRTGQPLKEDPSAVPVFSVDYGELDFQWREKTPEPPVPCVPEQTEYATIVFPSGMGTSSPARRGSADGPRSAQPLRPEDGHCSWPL
T5 sequence (Q15116 25-169 limits assumed): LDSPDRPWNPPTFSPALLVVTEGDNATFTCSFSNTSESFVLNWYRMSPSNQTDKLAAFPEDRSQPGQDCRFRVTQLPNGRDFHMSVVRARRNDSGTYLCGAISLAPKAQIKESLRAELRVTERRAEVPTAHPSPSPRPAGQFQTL

B1: TM3B189 (antibody, V domains shown)
VH: EVQLQQSGPELLKPGASVKMSCKASGYTFTSYVMYWVKQKPGQGLEWIGYINPYNDGTKYNEKFKGKATLTSDKSSSTAYMELSRLTSEDSAVYYCTRDDYDVAPFAYWGQGTLVTVSA
VL: DIVLTQSPASLAVSLGQRATISCRASESLDSYGNSYIHWYQQKPGQPPKLLIYLASNLESGVPARFSGSGSKTDFTLTIDPVEADDPATYYCQQNNEDPFTFGSGTKLEIK
notes: Mouse-derived variable domains; also called TM3H141/TM3L61
B1: the EC50 amounted to 0.74 µg/mL in assay [1] and 0.19 µg/mL in assay [2]. Further, the “Galectin 9 Inhibition, % inhibition (maximal)” value in [3] amounted to 76.4%.

B2: PD1B70 (antibody, V domains shown)
VH: QVQLVQSGAEVKKPGSSVKVSCKASGGTFSSYAISWVRQAPGQGLEWMGGIIPIFGTANYAQKFQGRVTITADESTSTAYMELSSLRSEDTAVYYCARGYVRATGMLDYWGQGTLVTVSS
VL: EIVLTQSPATLSLSPGERATLSCRASQSVSSYLAWYQQKPGQAPRLLIYDASNRATGIPARFSGSGSGTDFTLTISSLEPEDFAVYYCQQRSNWPLTFGQGTKVEIK
notes: Tested as IgG2sigma/kappa; also called PD1H107/PH9L3
B2: the 50% effective concentration (EC50) in assay [4] was 0.69 to 1.32 µg/mL; in assay [20], 0.69 µg/mL. In addition, the Kd in assay [5] stood at 101 nM; in assay [6] it was 138 nM; in [8], 123 nM; in assay [9] it was 109 nM; in assay [10], 45.4 nM; in assay [11] it was 42.6 nM. Besides, the Kd turned out to be 166 nM in [14]; 100 nM in assay [15]; 89 nM in assay [17]; 79.6 nM in assay [18]; 48.3 nM in assay [21]. The koff in [5] was 0.0418 s⁻¹; in [6] it was 0.0275 s⁻¹; in assay [7], 0.0341 s⁻¹; in assay [8], 0.0258 s⁻¹; in assay [9], 0.0245 s⁻¹; in [10], 0.0349 s⁻¹. Also, the koff in [14] amounted to 0.0304 s⁻¹; in assay [15], 0.0226 s⁻¹; in [17], 0.0222 s⁻¹; in assay [18], 0.0218 s⁻¹; in [22], 0.0356 s⁻¹. Moreover, the kon in assay [5] amounted to 415000 M⁻¹ s⁻¹; in [6], 225000 M⁻¹ s⁻¹; in assay [7], 737000 M⁻¹ s⁻¹; in assay [8], 210000 M⁻¹ s⁻¹; in assay [9], 199000 M⁻¹ s⁻¹; in assay [10], 769000 M⁻¹ s⁻¹. For the same molecule, the kon in assay [14] is 184000 M⁻¹ s⁻¹; in assay [15], 274000 M⁻¹ s⁻¹; in assay [17] it was 250000 M⁻¹ s⁻¹; in assay [18], 225000 M⁻¹ s⁻¹; in assay [22], 800000 M⁻¹ s⁻¹. Besides, the IC50 in assay [12] is 0.04 µg/mL; in [13], 0.059 µg/mL; in [16], 0.01 to 0.021 µg/mL. The “percentage ligand not blocked at 1 µg/ml” value in [19] came to 6%. For the same molecule, the “percentage ligand not blocked at 10 µg/ml” value in assay [19] amounted to 6%.

B3: PD1B195 (antibody, V domains shown)
VH: QVQLVQSGAEVKKPGSSVKVSCKASGGTFSSYAISWVRQAPGQGLEWMGGIIPIFDTANYAQKFQGRVTITADESTSTAYMELSSLRSEDTAVYYCARPGLAAAYDTGSLDYWGQGTLVTVSS
VL: EIVLTQSPATLSLSPGERATLSCRASQSVDSYLAWYQQKPGQAPRLLIYDASNRATGIPARFSGSGSGTDFTLTISSLEPEDFAVYYCQQREYWPLTFGQGTKVEIK
notes: also called PD1H170/PD1L67
With B3, the Kd in [10] was 1.23 nM; in [15], 0.97 nM; in assay [17] it was 0.94 nM; in [18], 0.91 nM. The koff in [10] was found to be 0.00152 s⁻¹; in assay [17] it was 0.000408 s⁻¹; in assay [24], 0.000396 s⁻¹; in assay [25], 0.000419 s⁻¹. The kon in [10] was found to be 1.23e+06 M⁻¹ s⁻¹; in [15], 434000 M⁻¹ s⁻¹; in assay [17], 432000 M⁻¹ s⁻¹; in assay [18], 430000 M⁻¹ s⁻¹. In addition, the “CMV EC50, nM (IFN-γ induction)” value in assay [23] amounted to 1.64 nM.

B4: PD1B149 (antibody, human IgG2, kappa, V domains shown)
VH: QVQLVQSGAEVKKPGSSVKVSCKASGGTFSSYAISWVRQAPGQGLEWMGGIIPIFGTANYAQKFQGRVTITADESTSTAYMELSSLRSEDTAVYYCARPGLAAAYDTGNLDYWGQGTLVTVSS
VL: EIVLTQSPATLSLSPGERATLSCRASQSVRNYLAWYQQKPGQAPRLLIHDASNRATGIPARFSGSGSGTDFTLTISSLEPEDFAVYYCQQRNYWPLTFGQGTKVEIKR
notes: IgG2sigma/kappa; VH 41, VL 50; also called PD1H24/PD1L128
As for B4, the koff in assay [5] stood at 0.0062 s⁻¹; in [27] it was 0.00365 s⁻¹; in [8], 0.00357 s⁻¹; in assay [9], 0.00348 s⁻¹. The kon came out at 532000 M⁻¹ s⁻¹ in assay [5], 336000 M⁻¹ s⁻¹ in assay [27], 320000 M⁻¹ s⁻¹ in [8] and 304000 M⁻¹ s⁻¹ in assay [9]. The Kd was 11.4 nM in assay [6], around 12 nM in assay [26], 11.2 nM in assay [8] and 10.9 nM in assay [9]. Besides, the “percentage ligand not blocked at 1 µg/ml” value in assay [19] came to 7%. The “percentage ligand not blocked at 10 µg/ml” value in assay [19] came out at 7%. The same molecule came in with an EC50 in [20] of 0.08 µg/mL.

B5: TM3B190 (antibody, V domains shown)
VH: DVQLQESGPGLVKPSQSLSLTCTVTGYSITSDYAWNWIRQFPGNKLEWMGYINYSGRTSYNPSLKSRISITRDTSKNQFFLQLNSVTTEDTATYYCTSGGNFDYWGQGTTLTVSS
VL: DIVMTQSPSSMSASLGDRITITCQATQDIVKNLNWYQQKPGKPPSFLIHYVTELAEGVPSRFSGSGSGSDYSLTISNLESEDFADYYCLQFYEFPLTFGAGTKLELK
notes: Mouse-derived variable domains; also called TM3H96/TM3L62
On to B5, for which the EC50 in assay [1] came to 0.35 µg/mL; in assay [2], 0.08 µg/mL. Also, in [3], the “Galectin 9 Inhibition, % inhibition (maximal)” value came to 60.7%.

The values are drawn from patent publication US20210277110A1 (Janssen / Centocor, published 2021).
